We go through 16 molecules from patent US20090022728A1 (RINAT NEUROSCIENCE, published 2009).

Assay [1] concerns the target T1, biotinylated Aβ1-40 peptide (biotinylated (N-biotinylated in Example 7)).
T1 construct: captured on streptavidin (SA) chip; also called Biotinylated Aβ peptide 1-40; Aβ1-40 on SA chip
The experiment in a line: SPR, Fab over Aβ1-40 on SA chip; KD=koff/kon. As for the experimental part:
(§1) Affinities of 9TL Fab fragment and its variants Fab fragments were determined by Surface Plasmon Resonance (SPR) system (BIAcore 3000™, BIAcore, Inc., Piscaway, N.J.). SA chips (streptavidin) were used according to the supplier's instructions. Biotinylated Aβ peptide 1-40 was diluted into HBS-EP (10 mM HEPES pH 7.4, 150 mM NaCl, 3 mM EDTA, 0.005% P20) and injected over the chip at a concentration of 0.005 mg/mL. Using variable flow time across the individual chip channels, two ranges of antigen density were achieved: 10-200 response units (RU) for detailed kinetic studies and 500-600 RU for concentration studies and screening. […] HBS-EP buffer was used as running buffer for all the BIAcore assays. […] The concentrations of the Fab proteins were determined by ELISA and/or SDS-PAGE electrophoresis using a standard Fab of known concentration (determined by amino acid analysis). Kinetic association rates (kₒₙ) and dissociation rates (koff) were obtained simultaneously by fitting the data to a 1:1 Langmuir binding model (Karlsson, R. Roos, H. Fagerstam, L. Petersson, B. (1994). Methods Enzymology 6. 99-110) using the BIAevaluation program. Equilibrium dissociation constant (KD) values were calculated as koff/kₒₙ.
(§2) All amino acid substitutions of the variants shown in Table 3 are described relative to the sequence of 9TL. KD and other kinetic parameters were determined by BIAcore analysis described above with Aβ₁₋₄₀ immobilized on SA chip.

In assay [2] the target is T1, biotinylated Aβ1-40 peptide. Put plainly: SPR, Fab over Aβ1-40 on SA chip. As for the experimental part: as §1, §2
A general note: Surface plasmon resonance follows binding to a sensor surface in real time, without labels.

Assay [3] shares this target. The experiment in a line: SPR, Fab over Aβ1-40 on SA chip; kon may be assumed = 9TL (footnote 2). As for the experimental part:
as §1, §2

T1 sequence (peptide, as listed by the source): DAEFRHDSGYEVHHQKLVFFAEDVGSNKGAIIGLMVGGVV

B1: 9TL variant 22-T/I Fab (Fab, V domains shown)
VH: QVQLVQSGAEVKKPGASVKVSCKASGYYTEAYYIHWVRQAPGQGLEWMGRIDPATGNTKYAPRLQDRVTMTRDTSTSTVYMELSSLRSEDTAVYYCASLYSLPVYWGQGTTVTVSS
VL: DVVMTQSPLSLPVTLGQPASISCKSSQSLLYSDAKTYLNWFQQRPGQSPRRLIYQISRLDPGVPDRFSGSGSGTDFTLKISRVEAEDVGVYYCLQGTHYPVIFGQGTRLEIKR
notes: Fab; human IgG2 CH1 and kappa CL
Turning to B1, in assay [1], the Kd (usually the equilibrium constant for the complex coming apart) turned out to be 1.45 nM. Moreover, the koff (usually the rate constant with which the complex falls apart) in assay [2] is 0.00046 s⁻¹. In addition, the kon (commonly the second-order rate constant of association) in assay [3] came to 318000 M⁻¹ s⁻¹.

B2: 9TL variant M3 Fab (Fab, V domains shown)
VH: QVQLVQSGAEVKKPGASVKVSCKASGYYTEAYYIHWVRQAPGQGLEWMGRIDPATGNTKYAPRLQDRVTMTRDTSTSTVYMELSSLRSEDTAVYYCASLYSLPVYWGQGTTVTVSS
VL: DVVMTQSPLSLPVTLGQPASISCKSSQSLLYSDAKTYLNWFQQRPGQSPRRLIYQISRLDPGVPDRFSGSGSGTDFTLKISRVEAEDVGVYYCCQGTHYPVLFGQGTRLEIKR
notes: as for B1
As for B2, the Kd in assay [1] came out at 4.09 nM. This molecule displayed a koff in assay [2] of 0.0013 s⁻¹. In assay [3], the kon is 318000 M⁻¹ s⁻¹.

B3: 9TL variant M8 Fab (Fab, V domains shown)
VH: QVQLVQSGAEVKKPGASVKVSCKASGYYTEAYYIHWVRQAPGQGLEWMGRIDPATGNTKYAPRLQDRVTMTRDTSTSTVYMELSSLRSEDTAVYYCASLYSLPVYWGQGTTVTVSS
VL: DVVMTQSPLSLPVTLGQPASISCKSSQSLLYSDAKTYLNWFQQRPGQSPRRLIYQISRLDPGVPDRFSGSGSGTDFTLKISRVEAEDVGVYYCQQGTHYPVLFGQGTRLEIKR
notes: as for B1
In assay [1], B3 came in with a Kd of 21.4 nM. In assay [2], the koff was 0.0068 s⁻¹. This molecule also displayed a kon in assay [3] of 318000 M⁻¹ s⁻¹.

B4: 9TL variant M7 Fab (Fab, V domains shown)
VH: QVQLVQSGAEVKKPGASVKVSCKASGYYTEAYYIHWVRQAPGQGLEWMGRIDPATGNTKYAPRLQDRVTMTRDTSTSTVYMELSSLRSEDTAVYYCASLYSLPVYWGQGTTVTVSS
VL: DVVMTQSPLSLPVTLGQPASISCKSSQSLLYSDAKTYLNWFQQRPGQSPRRLIYQISRLDPGVPDRFSGSGSGTDFTLKISRVEAEDVGVYYCSQGTHYPVLFGQGTRLEIKR
notes: as for B1
B4 came in with an equilibrium dissociation constant (Kd) in assay [1] of 18.9 nM. For the same molecule, the koff in assay [2] was 0.006 s⁻¹. In assay [3], the kon amounted to 318000 M⁻¹ s⁻¹.

B5: 9TL variant M13 Fab (Fab, V domains shown)
VH: QVQLVQSGAEVKKPGASVKVSCKASGYYTEAYYIHWVRQAPGQGLEWMGRIDPATGNTKYAPRLQDRVTMTRDTSTSTVYMELSSLRSEDTAVYYCASLYSLPVYWGQGTTVTVSS
VL: DVVMTQSPLSLPVTLGQPASISCKSSQSLLYSDAKTYLNWFQQRPGQSPRRLIYQISRLDPGVPDRFSGSGSGTDFTLKISRVEAEDVGVYYCLQGSHYPVLFGQGTRLEIKR
notes: as for B1
In the case of B5, the Kd in assay [1] worked out at 1.23 nM. Further, in assay [2], the koff is 0.00039 s⁻¹. Further, the kon in assay [3] came out at 318000 M⁻¹ s⁻¹.

B6: 9TL variant M1 Fab (Fab, V domains shown)
VH: QVQLVQSGAEVKKPGASVKVSCKASGYYTEAYYIHWVRQAPGQGLEWMGRIDPATGNTKYAPRLQDRVTMTRDTSTSTVYMELSSLRSEDTAVYYCASLYSLPVYWGQGTTVTVSS
VL: DVVMTQSPLSLPVTLGQPASISCKSSQSLLYSDAKTYLNWFQQRPGQSPRRLIYQISRLDPGVPDRFSGSGSGTDFTLKISRVEAEDVGVYYCMQGTHYPVLFGQGTRLEIKR
notes: as for B1
Turning to B6, the Kd in assay [1] is 2.7 nM. Besides, in assay [2], the koff amounted to 0.00086 s⁻¹. The molecule further had a kon in assay [3] of 318000 M⁻¹ s⁻¹.

B7: 9TL variant M6 Fab (Fab, V domains shown)
VH: QVQLVQSGAEVKKPGASVKVSCKASGYYTEAYYIHWVRQAPGQGLEWMGRIDPATGNTKYAPRLQDRVTMTRDTSTSTVYMELSSLRSEDTAVYYCASLYSLPVYWGQGTTVTVSS
VL: DVVMTQSPLSLPVTLGQPASISCKSSQSLLYSDAKTYLNWFQQRPGQSPRRLIYQISRLDPGVPDRFSGSGSGTDFTLKISRVEAEDVGVYYCKQGTHYPVLFGQGTRLEIKR
notes: as for B1
As for B7, binding in assay [1] was put at a Kd of 12.9 nM. For the same molecule, in assay [2], the off-rate (koff) was found to be 0.0041 s⁻¹. The same molecule came in with a kon in assay [3] of 318000 M⁻¹ s⁻¹.

B8: 9TL variant C6 new Fab (Fab, V domains shown)
VH: QVQLVQSGAEVKKPGASVKVSCKASGYYTEAYYIHWVRQAPGQGLEWMGRIDPATGNTKYAPRLQDRVTMTRDTSTSTVYMELSSLRSEDTAVYYCASLYSLPVYWGQGTTVTVSS
VL: DVVMTQSPLSLPVTLGQPASISCKSSQSLLYSDAKTYLNWFQQRPGQSPRRLIYQISRLDPGVPDRFSGSGSGTDFTLKISRVEAEDVGVYYCLQGTHYPVTFGQGTRLEIKR
notes: as for B1
B8 registered a Kd in assay [1] of 2.58 nM. Also, in assay [2], the dissociation rate constant (koff) was 0.00092 s⁻¹ and the kon amounted to 356000 M⁻¹ s⁻¹.

B9: 9TL variant M4 Fab (Fab, V domains shown)
VH: QVQLVQSGAEVKKPGASVKVSCKASGYYTEAYYIHWVRQAPGQGLEWMGRIDPATGNTKYAPRLQDRVTMTRDTSTSTVYMELSSLRSEDTAVYYCASLYSLPVYWGQGTTVTVSS
VL: DVVMTQSPLSLPVTLGQPASISCKSSQSLLYSDAKTYLNWFQQRPGQSPRRLIYQISRLDPGVPDRFSGSGSGTDFTLKISRVEAEDVGVYYCFQGTHYPVLFGQGTRLEIKR
notes: as for B1
The molecule B9 displayed a Kd in assay [1] of 3.13 nM. This molecule also displayed an off-rate (koff) in assay [2] of 0.000995 s⁻¹. The same molecule returned a kon in assay [3] of 318000 M⁻¹ s⁻¹.

B10: 9TL variant M12 Fab (Fab, V domains shown)
VH: QVQLVQSGAEVKKPGASVKVSCKASGYYTEAYYIHWVRQAPGQGLEWMGRIDPATGNTKYAPRLQDRVTMTRDTSTSTVYMELSSLRSEDTAVYYCASLYSLPVYWGQGTTVTVSS
VL: DVVMTQSPLSLPVTLGQPASISCKSSQSLLYSDAKTYLNWFQQRPGQSPRRLIYQISRLDPGVPDRFSGSGSGTDFTLKISRVEAEDVGVYYCLQTTHYPVLFGQGTRLEIKR
notes: as for B1
B10 had a dissociation constant Kd in assay [1] of 10.4 nM. The same molecule yielded a koff in assay [2] of 0.0033 s⁻¹. This molecule also returned a kon in assay [3] of 318000 M⁻¹ s⁻¹.

B11: 9TL variant M11 Fab (Fab, V domains shown)
VH: QVQLVQSGAEVKKPGASVKVSCKASGYYTEAYYIHWVRQAPGQGLEWMGRIDPATGNTKYAPRLQDRVTMTRDTSTSTVYMELSSLRSEDTAVYYCASLYSLPVYWGQGTTVTVSS
VL: DVVMTQSPLSLPVTLGQPASISCKSSQSLLYSDAKTYLNWFQQRPGQSPRRLIYQISRLDPGVPDRFSGSGSGTDFTLKISRVEAEDVGVYYCLQSTHYPVLFGQGTRLEIKR
notes: as for B1
With B11, binding in assay [1] was characterised by a dissociation constant (Kd) of 6.29 nM. In assay [2], the koff is 0.002 s⁻¹. In assay [3], this molecule showed a kon of 318000 M⁻¹ s⁻¹.

B12: 9TL variant M15 Fab (Fab, V domains shown)
VH: QVQLVQSGAEVKKPGASVKVSCKASGYYTEAYYIHWVRQAPGQGLEWMGRIDPATGNTKYAPRLQDRVTMTRDTSTSTVYMELSSLRSEDTAVYYCASLYSLPVYWGQGTTVTVSS
VL: DVVMTQSPLSLPVTLGQPASISCKSSQSLLYSDAKTYLNWFQQRPGQSPRRLIYQISRLDPGVPDRFSGSGSGTDFTLKISRVEAEDVGVYYCLQGTHPPVLFGQGTRLEIKR
notes: as for B1
On to B12, for which, in assay [1], the Kd stood at 2.11 nM. This molecule gave a koff in assay [2] of 0.00067 s⁻¹. The same molecule returned a kon in assay [3] of 318000 M⁻¹ s⁻¹.

B13: 9TL variant M10 Fab (Fab, V domains shown)
VH: QVQLVQSGAEVKKPGASVKVSCKASGYYTEAYYIHWVRQAPGQGLEWMGRIDPATGNTKYAPRLQDRVTMTRDTSTSTVYMELSSLRSEDTAVYYCASLYSLPVYWGQGTTVTVSS
VL: DVVMTQSPLSLPVTLGQPASISCKSSQSLLYSDAKTYLNWFQQRPGQSPRRLIYQISRLDPGVPDRFSGSGSGTDFTLKISRVEAEDVGVYYCSQGTHYPVLFGQGTRLEIKR
notes: Fab; human IgG2 CH1 and kappa CL; same printed substitution as M7
The molecule B13 showed a Kd in assay [1] of 26.1 nM. Besides, the koff in assay [2] was 0.0083 s⁻¹. In assay [3], this molecule had a kon of 318000 M⁻¹ s⁻¹.

B14: 9TL variant M9 Fab (Fab, V domains shown)
VH: QVQLVQSGAEVKKPGASVKVSCKASGYYTEAYYIHWVRQAPGQGLEWMGRIDPATGNTKYAPRLQDRVTMTRDTSTSTVYMELSSLRSEDTAVYYCASLYSLPVYWGQGTTVTVSS
VL: DVVMTQSPLSLPVTLGQPASISCKSSQSLLYSDAKTYLNWFQQRPGQSPRRLIYQISRLDPGVPDRFSGSGSGTDFTLKISRVEAEDVGVYYCGQGTHYPVLFGQGTRLEIKR
notes: as for B1
Consider B14, for which binding in assay [1] was characterised by a dissociation constant (Kd) of 24.5 nM. The koff in assay [2] stood at 0.0078 s⁻¹. The kon in assay [3] stood at 318000 M⁻¹ s⁻¹.

B15: 9TL variant M2 Fab (Fab, V domains shown)
VH: QVQLVQSGAEVKKPGASVKVSCKASGYYTEAYYIHWVRQAPGQGLEWMGRIDPATGNTKYAPRLQDRVTMTRDTSTSTVYMELSSLRSEDTAVYYCASLYSLPVYWGQGTTVTVSS
VL: DVVMTQSPLSLPVTLGQPASISCKSSQSLLYSDAKTYLNWFQQRPGQSPRRLIYQISRLDPGVPDRFSGSGSGTDFTLKISRVEAEDVGVYYCNQGTHYPVLFGQGTRLEIKR
notes: as for B1
Molecule B15 had a dissociation constant (Kd) in assay [1] of 3.46 nM. In assay [2], this molecule registered a koff of 0.0011 s⁻¹. This molecule had a kon in assay [3] of 318000 M⁻¹ s⁻¹.

B16: 9TL variant M14 Fab (Fab, V domains shown)
VH: QVQLVQSGAEVKKPGASVKVSCKASGYYTEAYYIHWVRQAPGQGLEWMGRIDPATGNTKYAPRLQDRVTMTRDTSTSTVYMELSSLRSEDTAVYYCASLYSLPVYWGQGTTVTVSS
VL: DVVMTQSPLSLPVTLGQPASISCKSSQSLLYSDAKTYLNWFQQRPGQSPRRLIYQISRLDPGVPDRFSGSGSGTDFTLKISRVEAEDVGVYYCLQGTLYPVLFGQGTRLEIKR
notes: as for B1
For the molecule B16, the Kd in assay [1] came out at 5.03 nM. In addition, the koff in assay [2] worked out at 0.0016 s⁻¹. In assay [3], this molecule registered a kon of 318000 M⁻¹ s⁻¹.
